Source: US10654917B2, “Antibody molecules and peptide delivery systems for use in alzheimer's disease and related disorders” (TECHNOPHAGE, INVESTIGAÇĀO E DESENVOLVIMENTO EM …, priority 2015, dated 2020)
Where “and” joins values, the source holds several entries; their conditions need not be identical. Equal entries are not always repeated.

Columns and labels:
[1] = Features of peptides: isoelectric point, charge; type: physicochemical; conditions: original peptide
From the text: Table 7 lists each peptide's name, isoelectric point (PI), charge (number of positive residues), calculated mass (in Da), and ion found; as well as the name, calculated mass, and found ion for the corresponding conjugate; and also retention times in HPLC and the partition coefficient (log Po/w). These values allowed the determination of the hydrophilic nature of peptides, where pepH1 and pepH4 were identified as the most hydrophilic peptides.

[2] = tested on: in vitro model of the BBB (bEnd3 cells); assay: Transmigration of radiolabelled peptides across in vitro BBB model; type: in vitro ADME; conditions: for overpass in the control (no cells): 5 h
Procedure: Using the same in vitro model of the BBB described above, peptides labelled with technetium and gallium were tested for the ability to cross endothelial barrier. For each peptide, bEnd3 cells cultured on “tissue culture inserts” were incubated with 5 ρCimL^−1-labelled peptide for different incubation times: 15 min, 5 h and 24 h. As a control, the model without cells was used (Control no cells) or (Filters) and compared to models with cells (BBB) or (Cells).
FIGS. 21A-21F show the percent activity of the radioisotope technetium-labelled peptides at the apex and base after 5 hours of incubation with the in vitro model described above, using the BBB-model or no cells (as a control); and values were obtained from two independent assays. […] Moreover, the results indicated promising candidates. Specifically, for each of pepH1 and pepH3, there was an overpass of 50% in the control, compared with only 20% in the presence of a cell barrier. The translocation of pepH2 was not observed in either the control nor in the BBB model.
Results for the incubations of 15 minutes, 5 hours, and 24 hours are shown together in FIGS. 22A-22F. That is, FIGS. 22A-22F show the percent activity of the radioisotope technetium-labelled peptides at the apex and base after 15 minutes, 5 hours, and 24 hours of incubation with the in vitro model described above, using the BBB-model or no cells (as a control); and values were obtained from two independent assays. Differences again were observed, confirming the integrity of the barrier, as well as identifying peptides that crossed the barrier. […] PepR′ thus was excluded from further tests.
(§1) Table 9 summarizes results regarding uptake (internalization) and cellular interaction, as well as transmigration across an in vitro model for BBB, for peptides labelled with technetium and gallium, after 15 minutes, 5 hours, and 24-hours of incubation, based on percent recovery of radiopeptide. The Table lists the peptides, providing each peptide's name, % BBB transmigration, % cellular interaction, and % internalized, each after […], 5 hours, and 24 hours of incubation.

bEnd3 cells = assay: Uptake test: cellular interaction (acid wash) and internalization (lysate); type: cell-based
Procedure: In addition to testing models of BBB, an uptake test was performed to determine the internalizing ability of the candidate peptides. BEnd3 cells were cultured in 24 well plates. At each time point, the medium containing the peptide, which had not interacted with the cells, was collected. In the next step, the cells were washed with an acidic buffer that releases peptides more strongly bound to the cell membrane (sample acid wash). Finally, the cells were lysed to release internalized peptides and to quantify the activity inside the cells. Results are showing in FIGS. 23A-23E.
FIGS. 23A-23E show percent activity of the radioisotope technetium-labelled peptides in the media, wash buffer (acid wash) and lysate, after 15 minutes, 5 hours, and 24 hours of incubation with bEnd3 cells; and values were obtained from two independent assays. […] PepM′, as well as showing high transmigration (about 50%), also appeared to become internalized and accumulated within the cells (about 13% of radioactivity in the lysate).
as §1

[3] = Partition coefficient Kp by intrinsic trp fluorescence; type: physicochemical
Procedure: For the pepH3, the “partition coefficient” or “affinity constant” also was determined, since this peptide intrinsically presents a tryptophan and, thus, successful administrations of the lipid compositions allowed determination of pepH3's affinity constant.
PepH2 and pepH3 are the most hydrophobic peptides (Po/w). In addition, pepH2 interacts with various lipid compositions of membrane models, while pepH3 only interacts with membranes rich in PS (a negatively charged phospholipid).

[4] = Biodistribution of technetium-labelled peptides; type: in vivo, CD1 mice; conditions: for excreted: after 60 min; for brain uptake: after 2 min; for brain washout: mouse, in vivo
Procedure: To evaluate the capacity to cross the BBB in vivo, the selected peptides, pepH1 and pepH3, were analyzed for biodistribution in CD1 mice. The peptides were labelled with technetium at a final concentration of 8.5×10^−5 M and diluted in PBS. CD1 mice were injected (iv injection, tail vein). The mice were sacrificed by cervical dislocation after 5 and 60 minutes of incubation. The tissues of interest were dissected and washed to remove excess blood, weighed, and measured for radioactivity. Technetium radioactivity of the different peptides was measured for different organs.
Initial results are presented in Table 11, where “% I.A. refers to the “% injected activity”, that is, the amount of radioactivity measured in a given organ compared to the total originally injected.
The biodistribution studies were repeated, using higher doses of each peptide, specifically, a one hundred fold increase, as well as using PepH2 as a negative control, and allowing incubation for 2 minutes and 60 minutes. Tissue biodistribution profile in percentage of injected radiopeptide activity per gram of tissue/organ was measured and results are presented in Table 12.

[5] = Stability in blood and urine after injection, HPLC; type: in vivo, mice; conditions: 5 and 60 minutes following injection
Procedure: Finally, stability of the peptides was determined. Urine and blood were taken from the animals after death, filtered, and analyzed by RT-HPLC. HPLC analysis was conducted to assess the stability of pepH1 and pepH3 peptides in blood and urine, 5 and 60 minutes post-administration, compared to the respective original preparations.
FIGS. 28A-28D show the profile of pepH1 and pepH3 each in its original preparation, prior to injection into the animals, and then after 5 and 60 minutes following injection in the blood and urine.

BAP42 = biological target: T1, BAP42 (Homo sapiens, UniProt P05067); assay: Thioflavin T assay of BAP42 aggregation inhibition; type: biochemical; conditions: proportions 1:5 and 1:20 sdAb:BAP42
T1 construct: “beta-amyloid peptide 42”, or “beta-amyloid peptide 1-42”
Procedure: Once purified and verified in recognizing BAP42 oligomers, anti-oligomer antibodies were purified were tested for their ability to inhibit aggregation of the peptide to fibrillar forms. This assay was performed using the thioflavin T (ThT), which, as discussed above, is a probe that recognizes rich “beta-sheet” secondary structures, the structure indeed characteristic of fibrillar BAP42. Accordingly, the greater aggregation inhibition by a candidate anti-oligomer sdAb, the less fibrils formed, and thus the smaller the signal emitted by ThT during the assay. Other selected anti-oligomer sdAbs show similar aggregation inhibition.
Anti-oligomers also were tested for their ability to inhibit aggregation of BAP42. This assay was performed using Thioflavin T (ThT), which, as described above, recognizes beta-sheet rich structures, characteristic of fibrillar form of BAP42, so that the ability of sdAbs to inhibit aggregation can be assessed. Specifically, the more aggregation is inhibited, the smaller the signal emitted by ThT. Two proportions were tested, namely, 1:5 (one molecule for sdAb for every 5 BAP42 molecules) and 1:20 (one molecule for sdAb for every 20 BAP42 molecules).

[6] = 140 μg (pepH1, pepH3) or 80 μg (pepH2)

T1 sequence (P05067 672-713 limits assumed): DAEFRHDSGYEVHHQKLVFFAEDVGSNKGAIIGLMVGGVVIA

Question: What does the source list for “AGILKRW (Dengue virus 2; /note=“#PepH3 (PEP+)”)”?
Answer: Charge (number of positive residues) [1]: 2; PI (isoelectric point) [1]: 11; BBB transmigration ([2]; 99mTc, 0.25 hours): 2.70 ± 0.0%; overpass in the control (no cells) ([2]; 99mTc): 50%; BBB transmigration ([2]; 99mTc, 5 hours): 9.16 ± 6.5%; BBB transmigration ([2]; 99mTc, 5 hours, listed as pepH3): 20%; BBB transmigration ([2]; 99mTc, 24 hours): 67.23 ± 1.2%; BBB transmigration ([2]; 99mTc, 24 hours, listed as pepH3): about 70%; BBB transmigration ([2]; GaCl3, 0.25 hours): 1.87 ± 0.3%; BBB transmigration ([2]; GaCl3, 5 hours): 26.47 ± 0.4%; BBB transmigration ([2]; GaCl3, 24 hours): 72.63 ± 0.7%; where the radiopeptide is found in the uptake test (media, acid wash, lysate) (bEnd3 cells; 99mTc): mainly remained in the incubation medium; Cellular interaction (bEnd3 cells; 99mTc, 0.25 hours): 1.50 ± 0.1%; Internalization (bEnd3 cells; 99mTc, 0.25 hours): 0.15 ± 0.1%; Cellular interaction (bEnd3 cells; 99mTc, 5 hours): 1.15 ± 0.1%; Internalization (bEnd3 cells; 99mTc, 5 hours): 0.15 ± 0.1%; Cellular interaction (bEnd3 cells; 99mTc, 24 hours): 0.60 ± 0.1%; Internalization (bEnd3 cells; 99mTc, 24 hours): 0.35 ± 0.2%; Cellular interaction (bEnd3 cells; GaCl3, 0.25 hours): 0.26 ± 0.0%; Internalization (bEnd3 cells; GaCl3, 0.25 hours): 0.03 ± 0.0%; Cellular interaction (bEnd3 cells; GaCl3, 5 hours): 0.73 ± 0.0%; Internalization (bEnd3 cells; GaCl3, 5 hours): 0.12 ± 0.0%; Cellular interaction (bEnd3 cells; GaCl3, 24 hours): 0.60 ± 0.1%; Internalization (bEnd3 cells; GaCl3, 24 hours): 0.30 ± 0.1%; affinity constant for POPC:POPS (1:4) relative to other lipid compositions [3]: 5 times; Kp ± SD ([3]; Lipidic membrane POPC:POPS (1:4)): 1,558 and 1,558 ± 216; Kp ± SD ([3]; Lipidic membrane POPC:POPS (3:2)): 455 ± 46; Kp ± SD ([3]; Lipidic membrane POPC:POPS (4:1)): 324 and 342 ± 102; radioactivity in the brain ([4]; 140 μg (pepH1, pepH3) or 80 μg (pepH2), 2 min): 0.31% and 0.37%; excreted [4, 6]: 36%; brain uptake [4]: rapid brain uptake; brain washout [4]: rapid brain washout; stability in blood and urine [5]: stable in the blood and urine

Question: With “VQQLTKRFSL (Dengue virus 2; /note=“#PepH1”)” as the molecule, how does the “Charge (number of positive residues)” value [1] read?
Answer: The value was 2.

Question: What about the “PI (isoelectric point)” value [1] of the same molecule?
Answer: The value was 11.

Question: And the BBB transmigration ([2]; 99mTc, 0.25 hours)?
Answer: Its BBB transmigration is 3.75 ± 0.5%.

Question: And the “overpass in the control (no cells)” value ([2]; 99mTc)?
Answer: The value was 50%.

Question: What about the BBB transmigration ([2]; 99mTc, 5 hours) of the same molecule?
Answer: The BBB transmigration was 24.3 ± 0.4%.

Question: What about the BBB transmigration ([2]; 99mTc, 5 hours, listed as pepH1) of the same molecule?
Answer: Its BBB transmigration is 20%.

Question: What about the BBB transmigration ([2]; 99mTc, 24 hours) of the same molecule?
Answer: The BBB transmigration was 73.83 ± 9.4%.

Question: And the BBB transmigration ([2]; 99mTc, 24 hours, listed as pepH1)?
Answer: Its BBB transmigration is “about 70%”.

Question: What about the “BBB transmigration / translocation (summary of Table 9)” value ([2]; 24 h, both types of markings) of the same molecule?
Answer: The value was “about 70%”.

Question: And the BBB transmigration ([2]; GaCl3, 0.25 hours)?
Answer: Its BBB transmigration is 1.13 ± 0.2%.

Question: What about the BBB transmigration ([2]; GaCl3, 5 hours) of the same molecule?
Answer: The BBB transmigration was 21.56 ± 0.4%.

Question: What about the BBB transmigration ([2]; GaCl3, 24 hours) of the same molecule?
Answer: The BBB transmigration was 71.47 ± 3.7%.

Question: What about the “where the radiopeptide is found in the uptake test (media, acid wash, lysate)” value (bEnd3 cells; 99mTc) of the same molecule?
Answer: The value was “mainly remained in the incubation medium”.

Question: What about the Cellular interaction (bEnd3 cells; 99mTc, 0.25 hours) of the same molecule?
Answer: The Cellular interaction was 0.63 ± 0.1%.

Question: And the Internalization (bEnd3 cells; 99mTc, 0.25 hours)?
Answer: Its Internalization is 0.16 ± 0.0%.

Question: And the Cellular interaction (bEnd3 cells; 99mTc, 5 hours)?
Answer: The Cellular interaction was 0.30 ± 0.0%.

Question: And the Internalization (bEnd3 cells; 99mTc, 5 hours)?
Answer: Its Internalization is 0.10 ± 0.0%.

Question: And the Cellular interaction (bEnd3 cells; 99mTc, 24 hours)?
Answer: Its Cellular interaction is 0.38 ± 0.1%.

Question: And the Internalization (bEnd3 cells; 99mTc, 24 hours)?
Answer: The Internalization was 0.12 ± 0.0%.

Question: What about the Cellular interaction (bEnd3 cells; GaCl3, 0.25 hours) of the same molecule?
Answer: The Cellular interaction was 0.25 ± 0.0%.

Question: What about the Internalization (bEnd3 cells; GaCl3, 0.25 hours) of the same molecule?
Answer: The Internalization was 0.00 ± 0.0%.

Question: And the Cellular interaction (bEnd3 cells; GaCl3, 5 hours)?
Answer: The Cellular interaction was 0.80 ± 0.3%.

Question: And the Internalization (bEnd3 cells; GaCl3, 5 hours)?
Answer: Its Internalization is 0.10 ± 0.0%.

Question: What about the Cellular interaction (bEnd3 cells; GaCl3, 24 hours) of the same molecule?
Answer: Its Cellular interaction is 0.62 ± 0.0%.

Question: What about the Internalization (bEnd3 cells; GaCl3, 24 hours) of the same molecule?
Answer: Its Internalization is 0.16 ± 0.0%.

Question: And the excreted [4, 6]?
Answer: Its excreted is 32.7%.

Question: What about the brain uptake [4] of the same molecule?
Answer: Its brain uptake is “rapid brain uptake”.

Question: And the brain washout [4]?
Answer: The brain washout was “rapid brain washout”.

Question: What about the “stability in blood and urine” value [5] of the same molecule?
Answer: Its value is “stable in the blood and urine”.

B1: FC5: sdAb from the literature binding BBB receptors; positive control for BBB transmigration, SEQ ID NO: 112 (protein, listed as Lama glama)
VHH: ASEVQLQASGGGLVQAGGSLRLSCAASGFKITHYTMGWFRQAPGKEREFVSRITWGGDNTFYSNSVKGRFTISRDNAKNTVYLQMNSLKPEDTADYYCAAGSTSTATPLRVDYWGKGTQVTVSSLE
modifications: /note=“#FC5”
Question: With B1 as the molecule, how does the “inhibition of BAP42 fibrillization (ThT signal)” value (BAP42) read?
Answer: The value was “do not inhibit fibrillization”.
